Where a chain is given by its changes, count along the chain named.
B1: IgA R3-1 (scFv, not shown: small tags and cut ends)
scFv: QSVKESGGRLVTPGTPLTLTCTVSGIDLSSNAMSWVRQAPGEGLEWIGTISTVGKTYFASWAKGRFTISKTSTTVDLRITSPTTEDTATYFCATRYDSYGYAYNYWFGTLWGPGTLVTVTSGGGGSGGGGSGGGGSELDLTQTPPSVSGAVGGTVTIKCQASENINSELAWYQQKPGQRPKLLIYDASKLASGVPSRFSGSGSGTEYTLTISGMQCDDAATYYCQSTYYDGNYVYAFGGGTEVDVTRS
B2: IgA R3-18 (scFv, not shown: small tags and cut ends)
scFv: QSLEESGGRLVTPGTPLTLTCTVSGIDLSSNAMTWVRQAPGEGLEWIGTISTGGSTYFASWAKGRFTISKTSTTVDLKITSPTTEDTATYFCATRYDSYGYAYNYWFGTLWGPGTLVTVTSGGGGSGGGGSGGGGSELVMTQTAASVSEPVGGTVTIKCQASQNINNELAWYQQKPGQRPKLLIYDASKLASGVPSRFSGSGSGTEFTLTISGMQCDDAATYYCQSTYYDGNYVYAFGGGTEVDVKGS
B3: R1-27 (scFv, not shown: small tags and cut ends)
scFv: QQQLMESGGGLVTPGTPLTLTCTVSGIDLRRYAMGWVRQAPGKGLQWIGIIASGNTDYASWAKGRFTISATSTTVDLKITSSTTEDTATYFCARYSGDNGGTLNLWGPGTLATVTTGGGGSGGGGSGGGGSELVMTQTAASVSEPVGGTVTIKCQASEHIRNYLAWYQQKPGQPPKLLIYTTSNLASGVPSRFSGSGSGTEYTLTISDLECADAATYYCQNYYDISTYGNTFGGGTEVDVKGS
B4: R3-58 (scFv, not shown: small tags and cut ends)
scFv: QQQLMESGGRLVTPGGSLTLTCTVSGIDLNSYAMGWVRQAPGKGLEYIGIIRNSGNTYYASWAKGRFTISKTSSTTVDLKMTSLTTEDTATYFCARYSGDNGGALNLWGPGTLVTVTSGGGGSGGGGSGGGGSELVMTQTAASVSGPVGGTVTIKCQASEFIRNYLAWYQQKPGQPPKLLIYTTSNLASGVPSRFSGSGSGTEYTLTISDLECADAATYYCQNYYDISTYGNAFGGGTEVVVIKGS
B5: R3-23 (scFv, not shown: small tags and cut ends)
scFv: QSVKESEGRLVTPGTPLTLTCTVSGFSLSRYAVSWVRQAPGKGLEWIGIIGSGGSTSYATWARGRFTISKTSTTVDLKITSPTTEDTVTYFCGSYYDSHGYAYVSLWGPGTLVTVTSGGGGSGGGGSGGGGSELVLTQTPSPVSGAVGGTVTINCQASQSISTALAWYQQKPGQPPKLLIYSASTLASGVSSRFKGSGSGTGFTLTISDLECADAATYYCQSYYGSSSDNAFGGGTEVVIKRS
B6: R3-75 (scFv, not shown: small tags and cut ends)
scFv: B1 scFv
B7: R1-7 (scFv, not shown: small tags and cut ends)
scFv: QSLEESGGRLVTPGTPLTLTCTVSGIDLRRYAMGWVRQAPGKGLQWIGIIASGNTDYASWAKGRFTISATSTTVDLKITSPTTEDTATYFCARYSGDNGGTLNLWGPGTLVTVTSGGGGSGGGGSGGGGSELVMTQTAASVSEPVGGTVTIKCQASQSISSYLAWYQQKPGQPPKLLIYAASNLASGVSSRFKGSGSGTEFTLTISDLECADAATYYCQSYYSISSYGNTFGGGTEVEITGS
B8: R3-8 (scFv, not shown: small tags and cut ends)
scFv: B2 scFv with K158N, N164S, N166S, N167D, K189D, M214V, T227A, N232R, D244E, K246T
B9: R2-18 (scFv, not shown: small tags and cut ends)
scFv: B2 scFv
B10: R2-16 (scFv, not shown: small tags and cut ends)
scFv: QSVKESGGRLVTPGTPLTLTCTVSGFSLSSYAMGWVRQAPGKGLEYIGIISSSGSTYYASWAKGRFTISKTSTTVDLKITSPTTEDTATYFCARYSGDNGGALNLWGPGTLVTVTSGGGGSGGGGSGGGGSELDLTQTAASVSEPVGGTVTISCQSSQHIRSYLAWYQQKPGQPPKLLISAASTLASGVSSRFKGSGSGTEFTLTISDLECADAATYYCQRYYDIRNYGNGFGGGTEVEITGS
B11: R3-26 (scFv, not shown: small tags and cut ends)
scFv: QEQLVESGGGLVKPGGTLTLTCTVSGIDLSSYAMSWVRQVPGKGLEWIGIIGSGGGTAYANWAKGRFTISKTSSTTVDLKMTSLTTEDTATYFCATDYGIYGYAYGHLWGPGTLVTVTSGGGGSGGGGSGGGGSELVMTQTASPVSAAVGGTVTIKCQASQSISTALAWYQQRPGQPPKLLIYDASTLASGVSSRFKGSGSGTEFTLTISDLECADAATYYCQTYFGSDTDNAFGEGTEVEITGS
B12: R3-75 rabbit-derived single-chain antibody-His (scFv)
scFv: QSVKESGGRLVTPGTPLTLTCTVSGIDLSSNAMSWVRQAPGEGLEWIGTISTVGKTYFASWAKGRFTISKTSTTVDLRITSPTTEDTATYFCATRYDSYGYAYNYWFGTLWGPGTLVTVTSGGGGSGGGGSGGGGSELDLTQTPPSVSGAVGGTVTIKCQASENINSELAWYQQKPGQRPKLLIYDASKLASGVPSRFSGSGSGTEYTLTISGMQCDDAATYYCQSTYYDGNYVYAFGGGTEVDVTRSHHHHHH
B13: R1-27 rabbit-derived single-chain antibody-His (scFv)
scFv: QQQLMESGGGLVTPGTPLTLTCTVSGIDLRRYAMGWVRQAPGKGLQWIGIIASGNTDYASWAKGRFTISATSTTVDLKITSSTTEDTATYFCARYSGDNGGTLNLWGPGTLATVTTGGGGSGGGGSGGGGSELVMTQTAASVSEPVGGTVTIKCQASEHIRNYLAWYQQKPGQPPKLLIYTTSNLASGVPSRFSGSGSGTEYTLTISDLECADAATYYCQNYYDISTYGNTFGGGTEVDVKGSHHHHHH
B14: R3-23 rabbit-derived single-chain antibody-His (scFv)
scFv: QSVKESEGRLVTPGTPLTLTCTVSGFSLSRYAVSWVRQAPGKGLEWIGIIGSGGSTSYATWARGRFTISKTSTTVDLKITSPTTEDTVTYFCGSYYDSHGYAYVSLWGPGTLVTVTSGGGGSGGGGSGGGGSELVLTQTPSPVSGAVGGTVTINCQASQSISTALAWYQQKPGQPPKLLIYSASTLASGVSSRFKGSGSGTGFTLTISDLECADAATYYCQSYYGSSSDNAFGGGTEVVIKRSHHHHHH
B15: R2-18 rabbit-derived single-chain antibody-His (scFv)
scFv: QSLEESGGRLVTPGTPLTLTCTVSGIDLSSNAMTWVRQAPGEGLEWIGTISTGGSTYFASWAKGRFTISKTSTTVDLKITSPTTEDTATYFCATRYDSYGYAYNYWFGTLWGPGTLVTVTSGGGGSGGGGSGGGGSELVMTQTAASVSEPVGGTVTIKCQASQNINNELAWYQQKPGQRPKLLIYDASKLASGVPSRFSGSGSGTEFTLTISGMQCDDAATYYCQSTYYDGNYVYAFGGGTEVDVKGSHHHHHH
B16: R1-7 rabbit-derived single-chain antibody-His (scFv)
scFv: QSLEESGGRLVTPGTPLTLTCTVSGIDLRRYAMGWVRQAPGKGLQWIGIIASGNTDYASWAKGRFTISATSTTVDLKITSPTTEDTATYFCARYSGDNGGTLNLWGPGTLVTVTSGGGGSGGGGSGGGGSELVMTQTAASVSEPVGGTVTIKCQASQSISSYLAWYQQKPGQPPKLLIYAASNLASGVSSRFKGSGSGTEFTLTISDLECADAATYYCQSYYSISSYGNTFGGGTEVEITGSHHHHHH
B17: R2-16 rabbit-derived single-chain antibody-His (scFv)
scFv: QSVKESGGRLVTPGTPLTLTCTVSGFSLSSYAMGWVRQAPGKGLEYIGIISSSGSTYYASWAKGRFTISKTSTTVDLKITSPTTEDTATYFCARYSGDNGGALNLWGPGTLVTVTSGGGGSGGGGSGGGGSELDLTQTAASVSEPVGGTVTISCQSSQHIRSYLAWYQQKPGQPPKLLISAASTLASGVSSRFKGSGSGTEFTLTISDLECADAATYYCQRYYDIRNYGNGFGGGTEVEITGSHHHHHH

molecular target: human serum-derived IgA polyclonal antibody (#I4036; Sigma-Aldrich) (human); test: SPR, lysate, human IgA chip

Row | Binder | koff
1 | B1 | 9.88e-05 s⁻¹
2 | B2 | 0.000181 s⁻¹

molecular target: human serum-derived IgG polyclonal antibody (#I4506; Sigma-Aldrich) (human); test: SPR, lysate, human IgG chip

Row | Binder | koff
3 | B3 | 0.000859 s⁻¹
4 | B4 | 0.000742 s⁻¹
5 | B5 | 0.000408 s⁻¹
6 | B6 | 0.000278 s⁻¹
7 | B7 | 0.00175 s⁻¹
8 | B8 | 0.00088 s⁻¹
9 | B9 | 0.0008 s⁻¹
10 | B10 | 0.000838 s⁻¹
11 | B11 | 0.000571 s⁻¹

molecular target: human serum-derived IgA polyclonal antibody (#I4036; Sigma-Aldrich) (human); test: ELISA

Row | Binder | OD
12 | B1 | 3
13 | B6 | 3.06
14 | B2 | 3.03
15 | B8 | 3.06
16 | B9 | 3.11

molecular target: human IgG4 antibody (#I4639; Sigma-Aldrich) (human); test: ELISA

Row | Binder | OD
17 | B4 | 3.17
18 | B5 | 3.06
19 | B1 | 3.07
20 | B6 | 3.11
21 | B2 | 3.08
22 | B8 | 3.09
23 | B11 | 3.16

molecular target: human IgG2 antibody (#I5404; Sigma-Aldrich) (human); test: ELISA

Row | Binder | OD
24 | B4 | 3.08
25 | B5 | 3.06
26 | B1 | 3.07
27 | B6 | 3.04
28 | B2 | 3.09
29 | B8 | 3.02
30 | B11 | 3.04

molecular target: human serum-derived IgG polyclonal antibody (#I4506; Sigma-Aldrich) (human); test: ELISA

Row | Binder | OD
31 | B4 | 3.05
32 | B5 | 3.04
33 | B6 | 3.01
34 | B8 | 3.01
35 | B11 | 3.1

molecular target: human IgG3 antibody (#I5654; Sigma-Aldrich) (human); test: ELISA

Row | Binder | OD
36 | B3 | 3.08
37 | B4 | 3.11
38 | B5 | 3.02
39 | B1 | 3.02
40 | B6 | 3.12
41 | B2 | 2.99
42 | B8 | 3.06
43 | B9 | 3.08
44 | B10 | 3.05
45 | B11 | 3.14

molecular target: human IgG1 antibody (#I5154; Sigma-Aldrich) (human); test: ELISA

Row | Binder | OD
46 | B3 | 3.07
47 | B4 | 3.14
48 | B5 | 3.06
49 | B1 | 3.09
50 | B6 | 3.05
51 | B7 | 3.12
52 | B2 | 3.09
53 | B8 | 3.03
54 | B9 | 3.11
55 | B10 | 3.12
56 | B11 | 3.1

molecular target: human IgG1 antibody (#I5154; Sigma-Aldrich) (human); test: SPR, single cycle kinetics, IgG1 chip

Row | Binder | Kd | koff | kon
57 | B12 | 0.55 nM | 3.7e-05 s⁻¹ | 67000 M⁻¹ s⁻¹
58 | B13 | 40 nM | 0.0004 s⁻¹ | 9900 M⁻¹ s⁻¹
59 | B14 | 11 nM | 0.00013 s⁻¹ | 11000 M⁻¹ s⁻¹
60 | B15 | 4.8 nM | 0.00012 s⁻¹ | 25000 M⁻¹ s⁻¹
61 | B16 | 24 nM | 0.0017 s⁻¹ | 71000 M⁻¹ s⁻¹
62 | B17 | 2.5 nM | 0.00032 s⁻¹ | 130000 M⁻¹ s⁻¹

Source: patent US20180327803A1
